From US20050152903A1 (CRITICAL THERAPEUTICS, published 2005)
Each block holds one binder with its values, some of them ahead of it. Where no end group is shown, it is not given here.

B1: peptide corresponding to amino acid residues 46-63 of human HMGB1 (peptide)
peptide: SERWKTMSAKEKGKFEDM
modifications: also: biotinylated (position not given here)
notes: also called HMGB1 46-63 peptide; huHMGB1-46-63-B
B2: 2E11 HMGB1 mAb (antibody, V domains shown)
VH: QVQLQQSGPELVRPGTSVKISCKTSGYTFLTYWMNWVKQRPGQGLEWIGQIFPASDNTYYNEMFKDKATLTVDTSSSTAYIHLSSLTSEDTAVYFCAREDSMDYWGQGTSVTVSS
VL: DIQMTQTTSSLSASLGDRVTVSCSASRGINNYLNWYQQKPDGTVKFLIYYTSSLHSGVPSRFSGSGSGTDYSLTISNLEPEDIATYYCQQYSKLPWTFGGGTKLEFK
notes: Murine hybridoma monoclonal antibody (ATCC PTA-5431); also called 2E111-1-1-2; CT3-2E11
B3: peptide corresponding to amino acid residues 61-78 of human HMGB1 (peptide)
peptide: EDMAKADKARYEREMKTY
modifications: also: biotinylated (position not given here)
notes: also called HMGB1 61-78 peptide; huHMGB1-61-78-B
B5: 2G7 HMGB1 mAb (antibody, V domains shown)
VH: QVQLQQSGAELVRPGSSVKISCKASGYAFSSYWMNWVKQRPGQGLEWIGQIYPGDGDTNYNGKFKGKATLTSDKSSSTAYMQLSSLTSEDSAVYFCARREPYGSYVGFGFWGQGTLVTVSA
VL: ENVLTQSPAIMSASPGEKVTMTCSASSSVSYMHWYQQKSSTSPKLWIYDTSKLASGVPGRFSGSGSGNSYSLTISSMEAEDVATYYCFQGSGYPPTFGGGTKLEIK
notes: Murine hybridoma monoclonal antibody (ATCC PTA-5432); also called 3-2G7-1-1-1; CT3-2G7
B6: peptide corresponding to amino acid residues 151-168 of human HMGB1 (peptide)
peptide: LKEKYEKDIAAYRAKGKP
modifications: also: biotinylated (position not given here)

How the values were obtained:
2E11 HMGB1 mAb [1] = biological target: B2; test: competition ELISA: peptide in solution against plate-bound HMGB1
2G7 HMGB1 mAb [2] = biological target: B5; test: competition ELISA: peptide (0.33-243 µM) with 2 µg/ml antibody, plate coated with recombinant rat HMGB1
Method: (§1) HMGB1 peptide binding experiments using 2G7 HMGB1 mAb were conducted. As described, biotinylated synthetic peptides corresponding to either amino acid residues 46-63 of human HMGB1 or amino acid residues 61-78 of human HMGB1 were prepared and analyzed for binding to 2G7 HMGB1 mAb (2G7) by ELISA. Briefly, 2 μg/ml of 2G7 HMGB1 mAb was added to plate wells containing either the HMGB1 46-63 peptide or the HMGB1 61-78 peptide at each of the indicated concentrations (0, 0.33, 1, 3, 9, 27, 81 and 243 μM peptide) for one hour at 25° C. to prepare antibody-peptide samples. ELISA plates were coated with 10 μg/ml of recombinant rat HMGB1, and incubated overnight at 4° C. The plates were then blocked with reconstituted milk for one hour at 37° C. Antibody-peptide samples were then added at the concentrations listed above and incubated for one hour at room temperature. The plates were then washed and incubated with Streptavidin-HRP. After washing, the plates were developed with TMB (Invitrogen, San Diego, Calif.) and absorbance at 655 nm was measured using a plate reader.

[3] = biological target: T1, peptide corresponding to amino acid residues 143-160 of human HMGB1 (human); test: peptide ELISA
T1 construct: Non-biotinylated
T1 peptide: PYEKKAAKLKEKYEKDIA

[4] = biological target: T2, peptide corresponding to amino acid residues 157-174 of human HMGB1 (human); test: peptide ELISA
T2 construct: Non-biotinylated; also called HMGB1 157-174 peptide; Human HMGB1-157-174
T2 peptide: KDIAAYRAKGKPDAAKKG

[5] = biological target: B6; test: peptide ELISA (FIG. 13B)
Method: (§2) Biotinylated peptides bound to React-Bind Streptavidin-Coated Plates (Pierce, Rockford, Ill., Catalog # 15501) and non-biotinylated peptides bound to poly-D-lysine coated ELISA plates were used in anti-peptide ELISAs. Biotinylated peptides corresponding to particular 18 amino acid regions of human HMGB1, as well as a longer peptide corresponding to amino acid residues 9-85 of human HMGB1, were prepared and analyzed for binding to particular anti-HMGB1 monoclonal antibodies by ELISA. These peptides, and their respective sequences, are depicted in FIG. 13A. Poly-D-lysine coated plates were prepared by adding 60-100 μl/well of 0.1 mg/ml solution of poly-D-lysine in water. Plates were then incubated at room temperature for 5 minutes and were rinsed with water to remove the solution.
(§3) Briefly, using the molecular weight of the respective peptide, 1 mM peptide solutions were prepared in pyrogen-free water and diluted in 1× phosphate buffered saline. Plate wells were washed three times with 200 μl of PBS and 100 μl of the various peptide solutions were added to designated wells. The plates were then covered and incubated for 60 minutes at room temperature. The wells were then washed three times with PBS, 0.05% polyoxyethylenesorbitan (referred to herein as Tween 20™) using a volume greater than 100 μl. 200 μl of blocking buffer (5% nonfat dry milk in PBS, 0.05% Tween 20™) was added to each of the wells. The plates were covered and incubated for 60 minutes at room temperature. The wells were then washed three times with PBS, 0.05% Tween 20™ using a volume greater than 100 μl.

2G7 HMGB1 mAb [6] = biological target: B5; test: competition ELISA: peptide in solution against plate-bound recombinant rat HMGB1
Method: as §1

[7] = biological target: T3, peptide corresponding to amino acid residues 53-70 of human HMGB1 (human); test: peptide ELISA
T3 construct: Non-biotinylated; also called HMGB1 53-70 peptide; huHMGB1-53-70
T3 peptide: SAKEKGKFEDMAKADKAR

[8] = biological target: T4, peptide consisting of a scrambled sequence of amino acid residues 61-78 of human HMGB1; test: peptide ELISA
T4 construct: Non-biotinylated; scrambled control; also called Human HMGB1-61-78_scr
T4 peptide: AKDYMEARKDTEYKMARE

[9] = biological target: T5, peptide corresponding to amino acid residues 67-84 of human HMGB1 (human); test: peptide ELISA (FIG. 24)
T5 construct: Non-biotinylated; also called HMGB1 67-84 peptide; Human HMGB1-67-84
T5 peptide: DKARYEREMKTYIPPKGE
Method: as §2
as §3, with “200 μl of blocking buffer (5% nonfat dry milk in PBS, 0.05% Tween 20™) was added to each of the wells. The plates were covered and incubated for 60 minutes at room temperature. The wells were then washed three times with PBS, 0.05% Tween 20™ using a volume greater than 100 μl.” left out

[10] = biological target: B3; test: peptide ELISA (FIG. 13B)
Method: as §2, §3

recombinant rat HMGB1 = biological target: T6, recombinant rat HMGB1 (rat, UniProt P63159 1-215); test: sandwich ELISA, mAb as capture antibody, polyclonal antibody or 6E6 as detector
T6 sequence: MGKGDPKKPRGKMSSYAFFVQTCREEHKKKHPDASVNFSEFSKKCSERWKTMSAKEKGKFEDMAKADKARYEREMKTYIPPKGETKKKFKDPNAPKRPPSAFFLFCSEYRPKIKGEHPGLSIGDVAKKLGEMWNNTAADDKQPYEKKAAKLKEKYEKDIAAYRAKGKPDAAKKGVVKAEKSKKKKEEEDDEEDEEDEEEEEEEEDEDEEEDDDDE
Method: In the first method, ELISA plates were coated with a number of purified anti-HMGB1 mAbs (e.g., 2E11 HMGB1 mAb, 2G5 HMGB1 mAb, 2G7 HMGB1 mAb, 6E6 HMGB1 mAb), and incubated overnight at 4° C. The plates were then blocked with PBS, 1% BSA for one hour at 37° C. After washing, recombinant rat HMGB1 was added at the indicated concentrations, and the plates were incubated at room temperature for 1 hour. The plates were then washed and incubated with rabbit polyclonal antibodies against HMGB1 at 2 μg/ml (see U.S. Pat. Nos. 6,303,321, 6,448,223 and 6,468,533). After 1 hour at room temperature, the plates were washed and incubated for 30 minutes with goat anti-rabbit Ig-HPR (Jackson ImmunoResearch Laboratories, West Grove, Pa.) diluted at 1:1000 in PBS. After washing, the plates were developed with TMB (Invitrogen, San Diego, Calif.) and absorbance at 655 nm was measured using a plate reader.
As depicted in FIGS. 14 and 15, two different ELISA methods were used to examine the properties of particular anti-HMGB1 monoclonal antibodies. In one method, HMGB1 monoclonal antibodies 2E11 HMGB1 mAb, 2G5 HMGB1 mAb, 2G7 HMGB1 mAb, and 6E6 HMGB1 mAb, were used as capture antibodies and a polyclonal HMGB1 antibody was used as the detector antibody. […]

CHO HMGB2 = biological target: T7, CHO HMGB2 (Chinese hamster (CHO cells), UniProt A0A8C2QD03 1-210); test: Western blot
T7 construct: also called non-recombinant (natural) HMGB2 from Chinese Hamster Ovary (CHO) cells
T7 sequence: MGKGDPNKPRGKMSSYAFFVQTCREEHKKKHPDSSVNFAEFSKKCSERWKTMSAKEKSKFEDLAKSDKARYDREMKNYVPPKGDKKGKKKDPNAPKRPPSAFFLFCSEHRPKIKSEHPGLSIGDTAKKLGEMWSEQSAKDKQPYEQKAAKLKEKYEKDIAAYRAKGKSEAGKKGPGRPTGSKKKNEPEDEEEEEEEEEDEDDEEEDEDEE

[11] = biological target: T8, peptide corresponding to amino acid residues 46-63 of human HMGB2 (human, also: biotinylated (position not given here)); test: peptide ELISA
T8 construct: also called HMGB2 46-63 peptide; huHMGB2-46-63-B
T8 peptide: SERWKTMSAKEKSKFEDM

[12] = biological target: T9, peptide corresponding to amino acid residues 40-57 of human HMGB1 (human); test: peptide ELISA
T9 construct: Non-biotinylated; also called HMGB1 40-57 peptide; Human HMGB1-40-57
T9 peptide: EFSKKCSERWKTMSAKEK

[13] = biological target: T10, peptide consisting of a scrambled sequence of amino acid residues 46-63 of human HMGB1; test: peptide ELISA
T10 construct: Non-biotinylated; scrambled control; also called Human HMGB1-46-63-scr
T10 peptide: RMKEESSAKDGWFTEMKK

[14] = biological target: B1; test: peptide ELISA (FIG. 13B)
Method: as §2, §3

[15] = biological target: T3, peptide corresponding to amino acid …; test: peptide ELISA (FIGS. 22 and 23)
Method: as §2
as §3, with “200 μl of blocking buffer (5% nonfat dry milk in PBS, 0.05% Tween 20™) was added to each of the wells. The plates were covered and incubated for 60 minutes at room temperature. The wells were then washed three times with PBS, 0.05% Tween 20™ using a volume greater than 100 μl.” left out

2E11 HMGB1 mAb [16] = biological target: B2; test: competition ELISA: peptide in solution with the antibody, plate-bound HMGB1

Binder: B1
binding result (2E11 HMGB1 mAb [1]): no binding | binding result (2G7 HMGB1 mAb [2]): binds

Binder: B2
binding result [3]: no binding (tested: 2 µg/ml antibody) | binding result [4]: no binding (tested: 2 µg/ml antibody) | binding result [5]: binds

Binder: B3
binding result (2G7 HMGB1 mAb [6]): no binding (tested: up to 243 µM peptide)

binding result [7]: no binding (tested: 2 µg/ml antibody) | binding result [8]: no binding (tested: 2 µg/ml antibody) | binding result [9]: binds | binding result [10]: binds | binding result (recombinant rat HMGB1): binds
B4: 6E6 HMGB1 mAb (antibody, V domains shown)
VH: EVQLQQSGAELVKPGASVKLSCTASGFNIKDTYMHWVKQRPEQGLEWIGRIDPANGNTKYDPKFQGKATITADTSSNTAYLQLSSLTSEDTAVYYCARGAYWGQGTLVTVSA
VL: DIVLTQSPASLAVSLGQRATISCKASQSVDYDGDSYMNWYQQKPGQPPKLLIYAASNLESGIPARFSGSGSGTDFTLNIHPVEEEDAATYYCQQSNEDPFTFGSGTKLEIK
notes: Murine hybridoma monoclonal antibody (ATCC PTA-5433); also called 6E6-7-1-1; CT3-6E6

Binder: B5
binding result (CHO HMGB2): no binding (tested: 2 µg/ml antibody) | binding result [11]: no binding (tested: 2 µg/ml antibody) | binding result [12]: no binding (tested: 2 µg/ml antibody) | binding result [13]: no binding (tested: 2 µg/ml antibody) | binding result [14]: binds | binding result [15]: binds | binding result (recombinant rat HMGB1): binds

Binder: B6
binding result (2E11 HMGB1 mAb [16]): binds
